Source: patent publication US11026999B2, “Insulin glargine/lixisenatide fixed ratio formulation” (SANOFI-AVENTIS DEUTSCHLAND GMBH, priority 2013, dated 2021)

System: type 2 diabetic patients
Assay: Treatment-emergent adverse events, SAEs, deaths, TEAEs leading to withdrawal (Example 1)
Details: Safety population
Experimental: Safety: The safety analysis was conducted on the safety population, defined as all randomized patients who received at least one dose of IMP (regardless of the amount of treatment administered). The evaluation of AEs, laboratory, vital sign, and ECG data was descriptive.

Gly(A21)-Arg(B31)-Arg(B32)-human insulin [Insulin Glargine]
TEAE leading to permanent treatment discontinuation: Confusional state (PT): 0 n (%) | TEAE leading to permanent treatment discontinuation: Dizziness (PT): 0 n (%) | TEAE leading to permanent treatment discontinuation: Headache (PT): 0 n (%) | TEAE leading to permanent treatment discontinuation: Nausea (PT): 0 n (%) | TEAE leading to permanent treatment discontinuation: Ovarian cancer (PT): 0 n (%) | TEAE leading to permanent treatment discontinuation: Vomiting (PT): 0 n (%) | TEAE: Abdominal distension (PT): 2 (1.2%) n (%) | TEAE: Arthralgia (PT): 3 (1.9%) n (%) | TEAE: Asthenia (PT): 0 n (%) | TEAE: Atrial fibrillation (PT): 1 (0.6%) n (%) | TEAE: Back pain (PT): 2 (1.2%) n (%) | TEAE: Bronchitis (PT): 1 (0.6%) n (%) | TEAE: Conjunctivitis (PT): 2 (1.2%) n (%) | TEAE: Constipation (PT): 0 n (%) | TEAE: Contusion (PT): 2 (1.2%) n (%) | TEAE: Cough (PT): 0 n (%) | TEAE: Cystitis (PT): 2 (1.2%) n (%) | TEAE: Decreased appetite (PT): 0 n (%) | TEAE: Depression (PT): 2 (1.2%) n (%) | TEAE: Diabetic neuropathy (PT): 2 (1.2%) n (%) | TEAE: Diarrhoea (PT): 6 (3.7%) n (%) | TEAE: Dizziness (PT): 1 (0.6%) n (%) | TEAE: Dyspepsia (PT): 1 (0.6%) n (%) | TEAE: Fatigue (PT): 0 n (%) | TEAE: Gastroenteritis (PT): 1 (0.6%) n (%) | TEAE: Headache (PT): 12 (7.4%) n (%) | TEAE: Hypertension (PT): 2 (1.2%) n (%) | TEAE: Hypertriglyceridaemia (PT): 0 n (%) | TEAE: Influenza (PT): 6 (3.7%) n (%) | TEAE: Injection site pruritus (PT): 0 n (%) | TEAE: Insomnia (PT): 0 n (%) | TEAE: Intervertebral disc disorder (PT): 2 (1.2%) n (%) | TEAE: Laceration (PT): 3 (1.9%) n (%) | TEAE: Lipase increased (PT): 1 (0.6%) n (%) | TEAE: Musculoskeletal pain (PT): 1 (0.6%) n (%) | TEAE: Nasopharyngitis (PT): 9 (5.6%) n (%) | TEAE: Nausea (PT): 0 n (%) | TEAE: Nepbrolithiasis (PT): 2 (1.2%) n (%) | TEAE: Oedema (PT): 2 (1.2%) n (%) | TEAE: Osteoarthritis (PT): 2 (1.2%) n (%) | TEAE: Pain in extremity (PT): 0 n (%) | TEAE: Presyncope (PT): 2 (1.2%) n (%) | TEAE: Rhinitis (PT): 2 (1.2%) n (%) | TEAE: Sciatica (PT): 2 (1.2%) n (%) | TEAE: Sinusitis (PT): 3 (1.9%) n (%) | TEAE: Tinnitus (PT): 2 (1.2%) n (%) | TEAE: Tooth abscess (PT): 2 (1.2%) n (%) | TEAE: Vomiting (PT): 1 (0.6%) n (%) | Treatment emergent SAE: Angina pectoris (PT): 0 n (%) | Treatment emergent SAE: Angina unstable (PT): 0 n (%) | Treatment emergent SAE: Atrial fibrillation (PT): 1 (0.6%) n (%) | Treatment emergent SAE: Bradycardia (PT): 0 n (%) | Treatment emergent SAE: Calculus ureteric (PT): 0 n (%) | Treatment emergent SAE: Cellulitis (PT): 0 n (%) | Treatment emergent SAE: Depression (PT): 1 (0.6%) n (%) | Treatment emergent SAE: Diabetic neuropathy (PT): 0 n (%) | Treatment emergent SAE: ECG signs of myocardial ischaemia (PT): 1 (0.6%) n (%) | Treatment emergent SAE: Intervertebral disc protrusion (PT): 0 n (%) | Treatment emergent SAE: Osteoarthritis (PT): 1 (0.6%) n (%) | Treatment emergent SAE: Ovarian cancer (PT): 0 n (%) | Treatment emergent SAE: Pain in extremity (PT): 0 n (%) | Treatment emergent SAE: Presyncope (PT): 1 (0.6%) n (%) | Treatment emergent SAE: Radius fracture (PT): 0 n (%) | Treatment emergent SAE: Sciatica (PT): 0 n (%) | TEAE leading to permanent treatment discontinuation: Hypersensitivity (PT, adjudicated as not allergic event by ARAC): 0 n (%) | TEAE leading to permanent treatment discontinuation: Gastrointestinal disorders (SOC): 0 n (%) | TEAE leading to permanent treatment discontinuation: Immune system disorders (SOC): 0 n (%) | TEAE leading to permanent treatment discontinuation: Neoplasms benign, malignant and unspecified (incl cysts and polyps) (SOC): 0 n (%) | TEAE leading to permanent treatment discontinuation: Nervous system disorders (SOC): 0 n (%) | TEAE leading to permanent treatment discontinuation: Psychiatric disorders (SOC): 0 n (%) | TEAE: Cardiac disorders (SOC): 1 (0.6%) n (%) | TEAE: Ear and labyrinth disorders (SOC): 2 (1.2%) n (%) | TEAE: Eye disorders (SOC): 7 (4.3%) n (%) | TEAE: Gastrointestinal disorders (SOC): 15 (9.3%) n (%) | TEAE: General disorders and administration site conditions (SOC): 5 (3.1%) n (%) | TEAE: Injury, poisoning and procedural complications (SOC): 11 (6.8%) n (%) | TEAE: Investigations (SOC): 5 (3.1%) n (%) | TEAE: Metabolism and nutrition disorders (SOC): 1 (0.6%) n (%) | TEAE: Musculoskeletal and connective tissue disorders (SOC): 13 (8.0%) n (%) | TEAE: Nervous system disorders (SOC): 20 (12.3%) n (%) | TEAE: Psychiatric disorders (SOC): 2 (1.2%) n (%) | TEAE: Renal and urinary disorders (SOC): 2 (1.2%) n (%) | TEAE: Respiratory, thoracic and mediastinal disorders (SOC): 4 (2.5%) n (%) | TEAE: Vascular disorders (SOC): 3 (1.9%) n (%) | Treatment emergent SAE: Cardiac disorders (SOC): 1 (0.6%) n (%) | Treatment emergent SAE: Injury, poisoning and procedural complications (SOC): 0 n (%) | Treatment emergent SAE: Investigations (SOC): 1 (0.6%) n (%) | Treatment emergent SAE: Musculoskeletal and connective tissue disorders (SOC): 1 (0.6%) n (%) | Treatment emergent SAE: Neoplasms benign, malignant and unspecified (incl cysts and polyps) (SOC): 0 n (%) | Treatment emergent SAE: Nervous system disorders (SOC): 1 (0.6%) n (%) | Treatment emergent SAE: Psychiatric disorders (SOC): 1 (0.6%) n (%) | Treatment emergent SAE: Renal and urinary disorders (SOC): 0 n (%) | Patients with any TEAE: 82 (50.6%) n (%) | Patients with any TEAE leading to death: 0 n (%) | Patients with any TEAE leading to permanent treatment discontinuation: 0 n (%) | Patients with any treatment emergent SAE: 6 (3.7%) n (%) | TEAE leading to permanent treatment discontinuation: HLGT: Allergic conditions: 0 n (%) | TEAE leading to permanent treatment discontinuation: HLGT: Deliria (incl confusion): 0 n (%) | TEAE leading to permanent treatment discontinuation: HLGT: Gastrointestinal signs and symptoms: 0 n (%) | TEAE leading to permanent treatment discontinuation: HLGT: Headaches: 0 n (%) | TEAE leading to permanent treatment discontinuation: HLGT: Neurological disorders NEC: 0 n (%) | TEAE leading to permanent treatment discontinuation: HLGT: Reproductive neoplasms female malignant and unspecified: 0 n (%) | TEAE leading to permanent treatment discontinuation: HLT: Allergic conditions NEC: 0 n (%) | TEAE leading to permanent treatment discontinuation: HLT: Confusion and disorientation: 0 n (%) | TEAE leading to permanent treatment discontinuation: HLT: Headaches NEC: 0 n (%) | TEAE leading to permanent treatment discontinuation: HLT: Nausea and vomiting symptoms: 0 n (%) | TEAE leading to permanent treatment discontinuation: HLT: Neurological signs and symptoms NEC: 0 n (%) | TEAE leading to permanent treatment discontinuation: HLT: Ovarian neoplasms malignant (excl germ cell): 0 n (%) | TEAE: HLGT: Administration site reactions: 1 (0.6%) n (%) | TEAE: HLGT: Appetite and general nutritional disorders: 1 (0.6%) n (%) | TEAE: HLGT: Cardiac arrhythmias: 1 (0.6%) n (%) | TEAE: HLGT: Depressed mood disorders and disturbances: 2 (1.2%) n (%) | TEAE: HLGT: Gastrointestinal investigations: 2 (1.2%) n (%) | TEAE: HLGT: Gastrointestinal motility and defaecation conditions: 7 (4.3%) n (%) | TEAE: HLGT: Gastrointestinal signs and symptoms: 7 (4.3%) n (%) | TEAE: HLGT: General system disorders NEC: 4 (2.5%) n (%) | TEAE: HLGT: Headaches: 13 (8.0%) n (%) | TEAE: HLGT: Injuries NEC: 9 (5.6%) n (%) | TEAE: HLGT: Inner ear and VIIIth cranial nerve disorders: 2 (1.2%) n (%) | TEAE: HLGT: Joint disorders: 6 (3.7%) n (%) | TEAE: HLGT: Lipid metabolism disorders: 0 n (%) | TEAE: HLGT: Musculoskeletal and connective tissue deformities (incl intervertebral disc disorders): 2 (1.2%) n (%) | TEAE: HLGT: Musculoskeletal and connective tissue disorders NEC: 3 (1.9%) n (%) | TEAE: HLGT: Neurological disorders NEC: 5 (3.1%) n (%) | TEAE: HLGT: Peripheral neuropathies: 2 (1.2%) n (%) | TEAE: HLGT: Respiratory disorders NEC: 2 (1.2%) n (%) | TEAE: HLGT: Sleep disorders and disturbances: 0 n (%) | TEAE: HLGT: Spinal cord and nerve root disorders: 2 (1.2%) n (%) | TEAE: HLGT: Urolithiases: 2 (1.2%) n (%) | TEAE: HLGT: Vascular hypertensive disorders: 2 (1.2%) n (%) | TEAE: HLT: Appetite disorders: 1 (0.6%) n (%) | TEAE: HLT: Asthenic conditions: 0 n (%) | TEAE: HLT: Chronic polyneuropathies: 2 (1.2%) n (%) | TEAE: HLT: Coughing and associated symptoms: 0 n (%) | TEAE: HLT: Depressive disorders: 2 (1.2%) n (%) | TEAE: HLT: Digestive enzymes: 2 (1.2%) n (%) | TEAE: HLT: Disturbances in initiating and maintaining sleep: 0 n (%) | TEAE: HLT: Dyspeptic signs and symptoms: 1 (0.6%) n (%) | TEAE: HLT: Elevated triglycerides: 0 n (%) | TEAE: HLT: Flatulence, bloating and distension: 2 (1.2%) n (%) | TEAE: HLT: Gastrointestinal atonic and hypomotility disorders NEC: 1 (0.6%) n (%) | TEAE: HLT: Headaches NEC: 12 (7.4%) n (%) | TEAE: HLT: Influenza viral infections: 6 (3.7%) n (%) | TEAE: HLT: Injection site reactions: 1 (0.6%) n (%) | TEAE: HLT: Inner ear signs and symptoms: 2 (1.2%) n (%) | TEAE: HLT: Intervertebral disc disorders NEC: 2 (1.2%) n (%) | TEAE: HLT: Joint related signs and symptoms: 3 (1.9%) n (%) | TEAE: HLT: Lower respiratory tract and lung infections: 1 (0.6%) n (%) | TEAE: HLT: Lumbar spinal cord and nerve root disorders: 2 (1.2%) n (%) | TEAE: HLT: Musculoskeletal and connective tissue pain and discomfort: 3 (1.9%) n (%) | TEAE: HLT: Nausea and vomiting symptoms: 1 (0.6%) n (%) | TEAE: HLT: Neurological signs and symptoms NEC: 3 (1.9%) n (%) | TEAE: HLT: Oedema NBC: 3 (1.9%) n (%) | TEAE: HLT: Osteoarthropathies: 2 (1.2%) n (%) | TEAE: HLT: Renal lithiasis: 2 (1.2%) n (%) | TEAE: HLT: Skin injuries NEC: 5 (3.1%) n (%) | TEAE: HLT: Supraventricular arrhythmias: 1 (0.6%) n (%) | TEAE: HLT: Vascular hypertensive disorders NEC: 2 (1.2%) n (%) | Treatment emergent SAE: HLGT: Bacterial infectious disorders: 0 n (%) | Treatment emergent SAE: HLGT: Bone and joint injuries: 0 n (%) | Treatment emergent SAE: HLGT: Cardiac and vascular investigations (excl enzyme tests): 1 (0.6%) n (%) | Treatment emergent SAE: HLGT: Cardiac arrhythmias: 1 (0.6%) n (%) | Treatment emergent SAE: HLGT: Coronary artery disorders: 0 n (%) | Treatment emergent SAE: HLGT: Depressed mood disorders and disturbances: 1 (0.6%) n (%) | Treatment emergent SAE: HLGT: Joint disorders: 1 (0.6%) n (%) | Treatment emergent SAE: HLGT: Musculoskeletal and connective tissue deformities (incl intervertebral disc disorders): 0 n (%) | Treatment emergent SAE: HLGT: Musculoskeletal and connective tissue disorders NEC: 0 n (%) | Treatment emergent SAE: HLGT: Neurological disorders NEC: 1 (0.6%) n (%) | Treatment emergent SAE: HLGT: Peripheral neuropathies: 0 n (%) | Treatment emergent SAE: HLGT: Reproductive neoplasms female malignant and unspecified: 0 n (%) | Treatment emergent SAE: HLGT: Spinal cord and nerve root disorders: 0 n (%) | Treatment emergent SAE: HLGT: Urolithiases: 0 n (%) | Treatment emergent SAE: HLT: Bacterial infections NEC: 0 n (%) | Treatment emergent SAE: HLT: Chronic polyneuropathies: 0 n (%) | Treatment emergent SAE: HLT: Depressive disorders: 1 (0.6%) n (%) | Treatment emergent SAE: HLT: ECG investigations: 1 (0.6%) n (%) | Treatment emergent SAE: HLT: Intervertebral disc disorders NEC: 0 n (%) | Treatment emergent SAE: HLT: Ischaemic coronary artery disorders: 0 n (%) | Treatment emergent SAE: HLT: Lumbar spinal cord and nerve root disorders: 0 n (%) | Treatment emergent SAE: HLT: Musculoskeletal and connective tissue pain and discomfort: 0 n (%) | Treatment emergent SAE: HLT: Neurological signs and symptoms NEC: 1 (0.6%) n (%) | Treatment emergent SAE: HLT: Osteoarthropathies: 1 (0.6%) n (%) | Treatment emergent SAE: HLT: Ovarian neoplasms malignant (excl germ cell): 0 n (%) | Treatment emergent SAE: HLT: Rate and rhythm disorders NEC: 0 n (%) | Treatment emergent SAE: HLT: Supraventricular arrhythmias: 1 (0.6%) n (%) | Treatment emergent SAE: HLT: Upper limb fractures and dislocations: 0 n (%) | Treatment emergent SAE: HLT: Urinary tract lithiasis (excl renal): 0 n (%) | Patients with any TEAE leading to permanent treatment discontinuation (listed as insulin glargine): none | Patients with any treatment emergent SAE (listed as insulin glargine): 6 (3.7%) n (%)
